± gives the uncertainty stated by the source.
Assay: self-splicing fitness, log relative to wild type (ln ratio); higher = more splicing; Tetrahymena group I intron in knt gene, E. coli kanamycin selection, DiMSum; sequences stand for … in CUCUCU…GGAGGGAAAAGUUAUCAGGCAUGCACCUGGUAGCUAGUCUUUAAACCAAUAGAUUGCAUCGGUUUAAAAGGCAAGACCGUCAAAUUGCGGGAAAGGGGUCAACAGCCGUUCAGUACCAAGUCUCAGGGGAAACUUUGAGAUGGCCUUGCAAAGGGUAUGGUAAUAAGCUGACGGACAUGGUCCUAACCACGCAGCCAAGUCCUAAGUCAACAGAUCUUCUGUUGAUAUGGAUGCAGUUCACAGACUAAAUGUCGGUCGGGGAAGAUGUAUUCUUCUCAUAAGAUAUAGUCGGACCUCUCCUUAAUGGGAGCUAGCGGAUGAAGUGAUGCAACACUGGAGCCGCUGGGAACUAAUUUGUAUGCGAAAGUAUAUUGAUUAGUUUUGGAGUACUCGUGGUCG
Method in brief: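 DiMSum derived fitness as the error-weighted combination of fold changes across replicates, kanamycin versus no kanamycin, normalised to wild type. E. coli BL21(DE3) held the library, which randomised all eight P1ex-region intron nucleotides within the knt kanamycin-resistance gene on pET-22b(+). Six replicate transformations grew overnight at 37°C or 30°C on LB agar with or without 25 μg/mL kanamycin, also containing 100 μg/mL carbenicillin, 50 μM IPTG and 0.2% rhamnose, and pooled colonies were amplicon-sequenced on an Illumina HiSeq 2500.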

Sequence	self-splicing fitness (ln) (30 °C)	self-splicing fitness (ln) (37 °C)
CUGUAGCAAUAUUACGUAUU	-4.45 ± 0.29	-3.47 ± 0.33
CUGUAGCAAUAUUACGUUAU	-3.21 ± 0.22	-2.83 ± 0.23
CUGUAGCAAUAUUACGUUCG	-0.00257 ± 0.13	0.798 ± 0.14
CUUAAGCAAUAUUACGAAGC	-3.09 ± 0.36	-2.17 ± 0.31
CUUAAGCAAUAUUACGAAUC	-2.97 ± 0.23	
CUUAAGCAAUAUUACGACAC	-3.04 ± 0.38	-1.54 ± 0.44
CUUAAGCAAUAUUACGACCG	0.42 ± 0.14	-0.4 ± 0.16
CUUAAGCAAUAUUACGAGAU	-2.92 ± 0.22	-1.59 ± 0.2
CUUAAGCAAUAUUACGCAAC	-3.55 ± 0.27	-2.37 ± 0.26
CUUAAGCAAUAUUACGCGCA	-3.58 ± 0.35	
CUUAAGCAAUAUUACGCGGC	-2.93 ± 0.24	-2.48 ± 0.27
CUUAAGCAAUAUUACGCGGG	-2.83 ± 0.2	-2.92 ± 0.31
CUUAAGCAAUAUUACGGCGU	-3.35 ± 0.2	-1.89 ± 0.17
CUUAAGCAAUAUUACGGGCA	-3.03 ± 0.23	-2.3 ± 0.25
CUUAAGCAAUAUUACGGGCG	-0.789 ± 0.13	-0.48 ± 0.14
CUUAAGCAAUAUUACGGUCA	-3.8 ± 0.46	-3.15 ± 0.32
CUUAAGCAAUAUUACGGUGU	-3.31 ± 0.22	-2.02 ± 0.18
CUUAAGCAAUAUUACGUAAG	-2.83 ± 0.1	-1.27 ± 0.098
CUUAAGCAAUAUUACGUAGU	-3.14 ± 0.13	-2.3 ± 0.18
CUUAAGCAAUAUUACGUAUG	-1.37 ± 0.056	-1.24 ± 0.073

Sequence	self-splicing fitness (ln) (30 °C)	self-splicing fitness (ln) (37 °C)
CUUAAGCAAUAUUACGUCAU	-4.2 ± 0.26	-2.84 ± 0.19
CUUAAGCAAUAUUACGUCGA	-1.85 ± 0.19	-2.19 ± 0.38
CUUAAGCAAUAUUACGUGCA	-2.91 ± 0.19	-1.34 ± 0.18
CUUAAGCAAUAUUACGUGCG	-1.34 ± 0.079	-0.172 ± 0.1
CUUAAGCAAUAUUACGUUAA	-3.97 ± 0.39	-2.63 ± 0.32
CUUAAGCAAUAUUACGUUUC	-3.98 ± 0.17	-3.23 ± 0.28
CUUCAGCAAUAUUACGAAAU	-2.2 ± 0.31	-2.4 ± 0.5
CUUCAGCAAUAUUACGAAUA	-2.77 ± 0.14	-2.09 ± 0.13
CUUCAGCAAUAUUACGACGA		-1.54 ± 0.37
CUUCAGCAAUAUUACGAGCG	-0.695 ± 0.058	-0.136 ± 0.085
CUUCAGCAAUAUUACGAGGA	-2.73 ± 0.26	-1.64 ± 0.24
CUUCAGCAAUAUUACGAGUU	-3.14 ± 0.2	-2.03 ± 0.2
CUUCAGCAAUAUUACGAUGC	-2.93 ± 0.21	-2.23 ± 0.23
CUUCAGCAAUAUUACGAUUC	-2.88 ± 0.21	-1.85 ± 0.16
CUUCAGCAAUAUUACGCAAC	-2.86 ± 0.21	
CUUCAGCAAUAUUACGCACA	-2.37 ± 0.24	
CUUCAGCAAUAUUACGCCAC	-2.72 ± 0.5	
CUUCAGCAAUAUUACGCCUC		-3.49 ± 0.32
CUUCAGCAAUAUUACGCUUA	-3.34 ± 0.2	-2.4 ± 0.17
CUUCAGCAAUAUUACGGACG	-0.00287 ± 0.06	-0.541 ± 0.073

— the supplement of paper PMC7877785
